Experimental data published in publication PMC10403129.

Legend:
GST-SAP-RG (rat) = experiment: on-bead pull-down; conditions: Hill 2.5; 100 ng pBS/FTZ, 10 mM Mg2+; unit implied by comparison; EMSA: 35 mM Tris-HCl pH 8.0, 72 mM KCl, 5 mM MgCl2, 5 mM DTT, 5 mM spermidine, 50 ug/ml BSA, 37 C; on-bead: 50 mM Tris-HCl pH 8.0, 120 mM KCl, 10 mM MgCl2 …
GST-RG (rat) = experiment: on-bead pull-down; conditions: Hill 1.8, 100 ng pBS/FTZ, 2 ul beads, 10 mM Mg2+, EMSA: 35 mM Tris-HCl pH 8.0, 72 mM KCl, 5 mM MgCl2, 5 mM DTT, 5 mM spermidine, 50 ug/ml BSA, 37 C, on-bead: 50 mM Tris-HCl pH 8.0, 120 mM KCl, 10 mM MgCl2 …
GST-SAP (rat) = experiment: on-bead pull-down; conditions: Hill 4.6, 100 ng pBS/FTZ, 2 ul beads, 10 mM Mg2+, EMSA: 35 mM Tris-HCl pH 8.0, 72 mM KCl, 5 mM MgCl2, 5 mM DTT, 5 mM spermidine, 50 ug/ml BSA, 37 C, on-bead: 50 mM Tris-HCl pH 8.0, 120 mM KCl, 10 mM MgCl2 …
hnRNP U WT (SP120) (rat) = experiment: EMSA; conditions: C50, competitive with equimolar vector, 5 mM Mg2+, 10 mM MgCl2 in gel, EMSA: 35 mM Tris-HCl pH 8.0, 72 mM KCl, 5 mM MgCl2, 5 mM DTT, 5 mM spermidine, 50 ug/ml BSA, 37 C, on-bead: 50 mM Tris-HCl pH 8.0, 120 mM KCl
hnRNP U ΔSAP (rat) = experiment: EMSA; conditions: C50, competitive with equimolar vector, 5 mM Mg2+, 10 mM MgCl2 in gel, EMSA: 35 mM Tris-HCl pH 8.0, 72 mM KCl, 5 mM MgCl2, 5 mM DTT, 5 mM spermidine, 50 ug/ml BSA, 37 C, on-bead: 50 mM Tris-HCl pH 8.0, 120 mM KCl

FTZ S/MAR insert
Kd (pmol (on beads)) (GST-SAP-RG (rat)): 6.7
half-saturation protein amount (pmol (on beads)) (GST-RG (rat)): 13
half-saturation protein amount (pmol (on beads)) (GST-SAP (rat)): 22.5
K half (hnRNP U WT (SP120) (rat)): 14 nM
K half (hnRNP U ΔSAP (rat)): 32 nM
